Target: H2A.Z(D97N/S98K)-containing nucleosome core particle with wild-type H4 (H4K20) (UniProt P06899 1-126; P68431 1-136; P62805 1-103)
Assay: MST

B1: SUV420H1(1–390), wild type, with N-terminal 6× His-TEV tag (domain or fragment)
chain: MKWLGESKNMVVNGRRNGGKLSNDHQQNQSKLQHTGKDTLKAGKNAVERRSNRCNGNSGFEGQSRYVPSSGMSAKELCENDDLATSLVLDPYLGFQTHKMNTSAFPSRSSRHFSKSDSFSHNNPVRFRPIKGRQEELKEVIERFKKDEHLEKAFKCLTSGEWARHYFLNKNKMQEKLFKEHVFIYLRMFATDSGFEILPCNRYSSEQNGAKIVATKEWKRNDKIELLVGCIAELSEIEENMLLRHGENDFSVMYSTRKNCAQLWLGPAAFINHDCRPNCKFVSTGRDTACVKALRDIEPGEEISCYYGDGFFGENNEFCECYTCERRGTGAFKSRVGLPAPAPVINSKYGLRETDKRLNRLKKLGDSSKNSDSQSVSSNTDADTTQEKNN
modifications: RED-tris-NTA dye on the His tag
Work on B1 yielded a Kd of 219 nM.

Reference: publication PMC10697951 (2023)
